Data set [1] deals with Sinorhizobium meliloti Clr, C-terminally His6-tagged (Sinorhizobium meliloti). Put plainly: crystal structure; Clr (0.25 or 0.44 mM) with 25 mM cAMP or cGMP, 25 mM MgCl2 and 1.25-fold excess of 19-mer/14-mer duplex CBS-DNA; sitting-drop vapor diffusion, 291 K (cAMP) or 281 K (cGMP).
The target is the same in data set [2]. The data set is described as follows: SEC; apo-Clr in solution (no cNMP, no DNA); dimer to monomers.
Data set [3] deals with T1, Clr (Sinorhizobium meliloti, UniProt Q92SD2).
T1 construct: gene SMc02175
Put plainly: isothermal titration calorimetry. It counts as binding. In general terms: Isothermal titration calorimetry measures the heat released or taken up as one component is titrated into another.

The target in data set [4] is T2, Clr (Sinorhizobium meliloti, UniProt Q92SD2 1-234).
T2 sequence: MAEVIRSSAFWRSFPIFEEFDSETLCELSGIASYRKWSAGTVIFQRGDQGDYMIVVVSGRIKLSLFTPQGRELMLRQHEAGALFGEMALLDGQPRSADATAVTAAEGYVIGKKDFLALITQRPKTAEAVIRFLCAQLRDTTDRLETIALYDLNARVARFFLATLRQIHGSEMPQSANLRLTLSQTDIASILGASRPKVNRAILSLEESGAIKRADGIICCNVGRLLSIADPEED
The data set is described as follows: ITC; 1 mM cAMP; EMSA: 2 mM HEPES pH 7.0, 30 mM NaCl, 50 mM KCl, 850 ng salmon sperm DNA, 1 ug BSA, 20 ng Cy3-DNA, 3 ug Clr in 10 uL, 1 mM cAMP, room temperature. ITC: 20 mM HEPES, 300 mM NaCl, 20 mM MgCl2, pH 7.0, 25 C. Conditions: protein: recombinant; tags: C-terminal His6 (pET36b, NdeI/XhoI); chain copies: 2; two copies of each strand; duplex arms joined by palindromic 5' overhang CTAG (4 nt) of the 19-mer, 1 nt 3' overhang G; nicked.

One may read the stoichiometry N as the number of molecules, sites or subunits per partner or assembly. For orientation: Kd means the free concentration of one partner at which half of the binding sites on the other are occupied at equilibrium, for simple one-to-one binding.

In the case of “Sinorhizobium meliloti Clr, C-terminally His6-tagged (natural protein)”, the stoichiometry N in data set [1] was determined as 2.
In data set [2], “Sinorhizobium meliloti Clr, C-terminally His6-tagged” came in with a percent in the monomeric state of 86% and a stoichiometry N of 2.
`Nc1nc2c(ncn2[C@@H]2O[C@@H]3COP(=O)(O)O[C@H]3[C@H]2O)c(=O)[nH]1` [cGMP]: in data set [3], the Kd is 23.8 ± 14.5 µM.

B1: CBS-DNA, two identical 19-mer/14-mer duplexes joined by palindromic CTAG sticky ends (nicked 33-nt) (dsDNA)
DNA 1: CTAGGTAACATTACTCGCG
DNA 2: GCGAGTAATGTTAC
DNA 3: CTAGGTAACATTACTCGCG
DNA 4: GCGAGTAATGTTAC
As to B1, the Kd in data set [4] was 6 ± 4.7 µM.
